Measurements taken from IntAct's records for PubMed 20059542.

B1: Ubiquitin domain-containing protein DSK2 (Saccharomyces cerevisiae), P48510 (parent)
chain: MSLNIHIKSGQDKWEVNVAPESTVLQFKEAINKANGIPVANQRLIYSGKILKDDQTVESYHIQDGHSVHLVKSQPKPQTASAAGANNATATGAAAGTGATPNMSSGQSAGFNPLADLTSARYAGYLNMPSADMFGPDGGALNNDSNNQDELLRMMENPIFQSQMNEMLSNPQMLDFMIQSNPQLQAMGPQARQMLQSPMFRQMLTNPDMIRQSMQFARMMDPNAGMGSAGGAASAFPAPGGDAPEEGSNTNTTSSSNTGNNAGTNAGTNAGANTAANPFASLLNPALNPFANAGNAASTGMPAFDPALLASMFQPPVQASQAEDTRPPEERYEHQLRQLNDMGFFDFDRNVAALRRSGGSVQGALDSLLNGDV
partner: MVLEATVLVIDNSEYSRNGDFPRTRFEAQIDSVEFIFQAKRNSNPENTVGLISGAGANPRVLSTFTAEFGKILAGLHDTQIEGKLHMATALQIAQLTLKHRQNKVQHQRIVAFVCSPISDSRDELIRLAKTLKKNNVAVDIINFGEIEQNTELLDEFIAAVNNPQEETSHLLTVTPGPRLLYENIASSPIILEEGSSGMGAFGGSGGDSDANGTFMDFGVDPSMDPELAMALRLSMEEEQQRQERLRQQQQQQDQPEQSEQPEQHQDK
B2: 26S proteasome non-ATPase regulatory subunit 4 homolog (Arabidopsis thaliana (Mouse-ear cress)), P55034 (parent)
chain: MVLEATMICIDNSEWMRNGDYSPSRLQAQTEAVNLLCGAKTQSNPENTVGILTMAGKGVRVLTTPTSDLGKILACMHGLDVGGEINLTAAIQIAQLALKHRQNKNQRQRIIVFAGSPIKYEKKALEIVGKRLKKNSVSLDIVNFGEDDDEEKPQKLEALLTAVNNNDGSHIVHVPSGANALSDVLLSTPVFTGDEGASGYVSAAAAAAAAGGDFDFGVDPNIDPELALALRVSMEEERARQEAAAKKAADEAGQKDKDGDTASASQETVARTTDKNAEPMDEDSALLDQAIAMSVGDVNMSEAADEDQDLALALQMSMSGEESSEATGAGNNLLGNQAFISSVLSSLPGVDPNDPAVKELLASLPDESKRTEEEESSSKKGEDEKK
partner: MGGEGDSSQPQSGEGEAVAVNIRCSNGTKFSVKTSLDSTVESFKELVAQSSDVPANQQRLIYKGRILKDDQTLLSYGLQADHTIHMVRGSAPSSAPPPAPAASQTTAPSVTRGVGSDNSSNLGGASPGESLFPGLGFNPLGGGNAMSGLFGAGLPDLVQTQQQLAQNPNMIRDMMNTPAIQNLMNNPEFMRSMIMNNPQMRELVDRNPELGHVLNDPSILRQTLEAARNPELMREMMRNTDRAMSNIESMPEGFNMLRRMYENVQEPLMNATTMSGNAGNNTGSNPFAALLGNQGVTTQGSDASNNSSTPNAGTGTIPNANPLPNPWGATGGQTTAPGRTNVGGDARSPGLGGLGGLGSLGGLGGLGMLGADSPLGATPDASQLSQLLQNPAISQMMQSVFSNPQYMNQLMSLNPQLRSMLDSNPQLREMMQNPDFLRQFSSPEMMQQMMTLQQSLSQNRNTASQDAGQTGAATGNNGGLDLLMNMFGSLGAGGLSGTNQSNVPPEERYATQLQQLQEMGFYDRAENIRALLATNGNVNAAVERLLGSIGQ
B3: 26S proteasome non-ATPase regulatory subunit 4 homolog (Arabidopsis thaliana (Mouse-ear cress)), P55034 (parent)
chain: B2 chain
partner: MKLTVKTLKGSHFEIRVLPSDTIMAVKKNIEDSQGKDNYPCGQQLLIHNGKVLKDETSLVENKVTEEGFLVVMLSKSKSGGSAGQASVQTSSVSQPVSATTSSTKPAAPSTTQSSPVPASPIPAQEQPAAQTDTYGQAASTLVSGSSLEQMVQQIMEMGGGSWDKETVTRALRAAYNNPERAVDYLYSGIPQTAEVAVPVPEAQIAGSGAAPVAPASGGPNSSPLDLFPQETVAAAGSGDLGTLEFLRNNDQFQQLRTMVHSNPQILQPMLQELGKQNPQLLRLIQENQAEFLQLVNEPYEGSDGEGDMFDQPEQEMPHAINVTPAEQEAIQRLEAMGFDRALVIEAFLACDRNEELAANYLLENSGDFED
B4: 26S proteasome regulatory subunit RPN10 (Saccharomyces cerevisiae), P38886 (parent)
chain: B1 partner
partner: B2 partner
B5: DNA damage-inducible protein 1 (Saccharomyces cerevisiae), P40087 (parent)
chain: MDLTISNELTGEIYGPIEVSEDMALTDLIALLQADCGFDKTKHDLYYNMDILDSNRTQSLKELGLKTDDLLLIRGKISNSIQTDAATLSDEAFIEQFRQELLNNQMLRSQLILQIPGLNDLVNDPLLFRERLGPLILQRRYGGYNTAMNPFGIPQDEYTRLMANPDDPDNKKRIAELLDQQAIDEQLRNAIEYTPEMFTQVPMLYINIEINNYPVKAFVDTGAQTTIMSTRLAKKTGLSRMIDKRFIGEARGVGTGKIIGRIHQAQVKIETQYIPCSFTVLDTDIDVLIGLDMLKRHLACVDLKENVLRIAEVETSFLSEAEIPKSFQEGLPAPTSVTTSSDKPLTPTKTSSTLPPQPGAVPALAPRTGMGPTPTGRSTAGATTATGRTFPEQTIKQLMDLGFPRDAVVKALKQTNGNAEFAASLLFQ
B6: 26S proteasome non-ATPase regulatory subunit 4 (Homo sapiens), P55036 (parent)
chain: MVLESTMVCVDNSEYMRNGDFLPTRLQAQQDAVNIVCHSKTRSNPENNVGLITLANDCEVLTTLTPDTGRILSKLHTVQPKGKITFCTGIRVAHLALKHRQGKNHKMRIIAFVGSPVEDNEKDLVKLAKRLKKEKVNVDIINFGEEEVNTEKLTAFVNTLNGKDGTGSHLVTVPPGPSLADALISSPILAGEGGAMLGLGASDFEFGVDPSADPELALALRVSMEEQRQRQEEEARRAAAASAAEAGIATTGTEDSDDALLKMTISQQEFGRTGLPDLSSMTEEEQIAYAMQMSLQGAEFGQAESADIDASSAMDTSEPAKEEDDYDVMQDPEFLQSVLENLPGVDPNNEAIRNAMGSLASQATKDGKKDKKEEDKK
partner: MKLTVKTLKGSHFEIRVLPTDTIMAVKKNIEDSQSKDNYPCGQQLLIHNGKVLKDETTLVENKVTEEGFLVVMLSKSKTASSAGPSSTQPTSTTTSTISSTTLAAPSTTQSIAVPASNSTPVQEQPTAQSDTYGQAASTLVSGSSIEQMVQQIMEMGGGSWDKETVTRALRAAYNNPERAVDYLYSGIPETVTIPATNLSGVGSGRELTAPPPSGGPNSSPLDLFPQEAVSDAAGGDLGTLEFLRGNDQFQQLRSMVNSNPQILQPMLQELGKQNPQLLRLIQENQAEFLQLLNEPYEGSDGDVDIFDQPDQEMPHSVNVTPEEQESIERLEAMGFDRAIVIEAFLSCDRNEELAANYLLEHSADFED
B7: UV excision repair protein RAD23 homolog B (Homo sapiens), P54727 (parent)
chain: MQVTLKTLQQQTFKIDIDPEETVKALKEKIESEKGKDAFPVAGQKLIYAGKILNDDTALKEYKIDEKNFVVVMVTKPKAVSTPAPATTQQSAPASTTAVTSSTTTTVAQAPTPVPALAPTSTPASITPASATASSEPAPASAAKQEKPAEKPAETPVATSPTATDSTSGDSSRSNLFEDATSALVTGQSYENMVTEIMSMGYEREQVIAALRASFNNPDRAVEYLLMGIPGDRESQAVVDPPQAASTGAPQSSAVAAAAATTTATTTTTSSGGHPLEFLRNQPQFQQMRQIIQQNPSLLPALLQQIGRENPQLLQQISQHQEHFIQMLNEPVQEAGGQGGGGGGGSGGIAEAGSGHMNYIQVTPQEKEAIERLKALGFPEGLVIQAYFACEKNENLAANFLLQQNFDED

Variants of: B1
Details: with rpn10_yeast RPN10, P38886

| Variant | effect of a mutation on the interaction |
| --- | --- |
| L70A | with no effect |
| L70A;V71A | disrupting interaction strength |

Variants of: B1
Details: with rpn10_yeast RPN10, P38886
Remark: another data set of the same source

| Variant | effect of a mutation on the interaction |
| --- | --- |
| L70A | disrupting interaction |

Variants of: B2
Details: with dsk2b_arath DSK2B

| Variant | effect of a mutation on the interaction |
| --- | --- |
| L310N;A311N;L312N;A313D;L314N | with no effect |
| L226D;A227D;L228D;A229D;L230D | disrupting interaction strength |
| L286N;L287N;Q289N;A290D;L310N;A311N;L312N;A313D;L314N | with no effect |
| L286N;L287N;Q289N;A290D | with no effect |

Variants of: B3
Details: with rd23b_arath RAD23B

| Variant | effect of a mutation on the interaction |
| --- | --- |
| L310N;A311N;L312N;A313D;L314N | disrupting interaction strength |
| L226D;A227D;L228D;A229D;L230D;L310N;A311N;L312N;A313D;L314N | disrupting interaction strength |
| L226D;A227D;L228D;A229D;L230D | with no effect |
| L226D;A227D;L228D;A229D;L230D;L286N;L287N;Q289N;A290D | decreasing interaction strength |
| L286N;L287N;Q289N;A290D | with no effect |
| L286N;L287N;Q289N;A290D;L310N;A311N;L312N;A313D;L314N | disrupting interaction strength |

Variants of: B4
Details: with dsk2b_arath DSK2B

| Variant | effect of a mutation on the interaction |
| --- | --- |
| L228N;A229N;M230N;A231N;L232N | disrupting interaction strength |

Variants of: B5
Details: with ubc_human UBC
Target sequence in this assay (P0CG48 whole entry, looked up): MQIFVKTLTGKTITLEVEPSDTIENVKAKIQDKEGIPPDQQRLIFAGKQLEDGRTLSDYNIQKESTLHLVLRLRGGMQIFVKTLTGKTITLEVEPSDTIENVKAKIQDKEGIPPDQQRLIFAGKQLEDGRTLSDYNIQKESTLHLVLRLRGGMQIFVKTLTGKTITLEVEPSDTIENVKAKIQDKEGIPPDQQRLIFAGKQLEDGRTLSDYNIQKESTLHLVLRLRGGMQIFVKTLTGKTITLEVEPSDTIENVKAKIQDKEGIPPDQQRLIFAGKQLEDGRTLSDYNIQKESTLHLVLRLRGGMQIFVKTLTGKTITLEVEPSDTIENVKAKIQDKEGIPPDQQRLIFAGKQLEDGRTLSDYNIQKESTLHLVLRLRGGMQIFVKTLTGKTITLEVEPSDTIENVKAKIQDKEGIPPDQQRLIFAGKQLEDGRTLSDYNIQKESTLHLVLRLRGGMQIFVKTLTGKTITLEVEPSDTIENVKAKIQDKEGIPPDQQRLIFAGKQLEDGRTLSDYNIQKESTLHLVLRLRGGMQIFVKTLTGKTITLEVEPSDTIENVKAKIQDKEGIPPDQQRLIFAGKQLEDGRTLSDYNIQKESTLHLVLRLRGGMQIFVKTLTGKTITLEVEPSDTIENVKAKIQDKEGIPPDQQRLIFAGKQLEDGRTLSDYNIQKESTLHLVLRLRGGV

| Variant | effect of a mutation on the interaction |
| --- | --- |
| L401A;G402A | disrupting interaction strength |

Variants of: B5
Details: with ubc_human UBC
Remark: another data set of the same source
Target sequence in this assay (P0CG48 whole entry, looked up): as above

| Variant | effect of a mutation on the interaction |
| --- | --- |
| L401A;G402A | decreasing interaction strength |

Variants of: B6
Details: with rd23a_arath RAD23A

| Variant | effect of a mutation on the interaction |
| --- | --- |
| I287N;A288N;Y289N;A290N;M291N | disrupting interaction strength |
| L216N;A217N;L218N;A219N;L220N | with no effect |
| L216N;A217N;L218N;A219N;L220N;I287N;A288N;Y289N;A290N;M291N | disrupting interaction strength |

Variants of: B7
Details: with psmd4_human PSMD4, P55036

| Variant | effect of a mutation on the interaction |
| --- | --- |
| L8A | disrupting interaction |

Variants of: B7
Details: with ubc_human UBC
Target sequence in this assay (P0CG48 whole entry, looked up): as above

| Variant | effect of a mutation on the interaction |
| --- | --- |
| M200A;G201A;Y202A;L376A;G377A;F378A | disrupting interaction strength |
| L376A;G377A;F378A | decreasing interaction strength |

Variants of: B7
Details: with ubc_human UBC
Remark: another data set of the same source
Target sequence in this assay (P0CG48 whole entry, looked up): as above

| Variant | effect of a mutation on the interaction |
| --- | --- |
| M200A;G201A;Y202A | decreasing interaction strength |
